As a reminder, the Kd is the free concentration of one partner at which half of the binding sites on the other are occupied at equilibrium, for simple one-to-one binding. Low values mean tighter binding, high ones weaker binding.

Data on two molecules can be found in patent EP4273162A1 (Numab Therapeutics AG, dated 2023).

Experiment [1] deals with pre-existing anti-drug antibodies (ADAs) in human sera. Description: ELISA, scFv coated, 5% human serum unspiked/spiked, anti-human IgG-HRP.
The target of experiment [2] is T1, human α-PD-L1 Fc (Sino Biological, 10084-H02H, LC11NO2402) (human, UniProt Q9NZQ7 19-239).
T1 construct: also called Human PD-L1
Nature of the experiment: SPR, PD-L1 Fc immobilised, scFv as analyte, 1:1 Langmuir fit. (In general: SPR reads the build-up and loss of mass on a sensor chip optically.)

Experiment [3] addresses T2, human α-Mesothelin (Acro Biosystems; MSN_H5223) (human, UniProt Q13421 296-580, limits assumed).
T2 construct: also called Human MSLN; MSLN
Description: SPR, MSLN immobilised, scFv as analyte, 1:1 Langmuir fit.

T1 sequence (Q9NZQ7 19-239 limits assumed): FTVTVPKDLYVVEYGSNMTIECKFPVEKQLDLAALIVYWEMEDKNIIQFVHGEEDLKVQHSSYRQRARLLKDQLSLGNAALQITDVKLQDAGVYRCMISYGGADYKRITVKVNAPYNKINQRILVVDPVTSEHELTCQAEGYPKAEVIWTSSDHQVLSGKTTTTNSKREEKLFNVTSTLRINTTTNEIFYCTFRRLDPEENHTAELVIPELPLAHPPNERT
T2 sequence (Q13421 other isoform, or with tags, fused parts or gaps limits assumed): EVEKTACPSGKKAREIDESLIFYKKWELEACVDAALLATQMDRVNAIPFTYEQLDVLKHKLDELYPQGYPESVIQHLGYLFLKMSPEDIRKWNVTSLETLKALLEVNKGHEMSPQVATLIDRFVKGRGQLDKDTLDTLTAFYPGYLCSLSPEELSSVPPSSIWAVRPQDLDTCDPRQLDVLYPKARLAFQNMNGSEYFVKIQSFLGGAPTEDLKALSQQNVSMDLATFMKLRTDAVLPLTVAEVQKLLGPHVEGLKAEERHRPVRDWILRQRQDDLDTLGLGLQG

B1: scFv 37-20-B03-sc09.1 PRO2230 (scFv)
scFv: DIQMTQSPASLSASVGDRVTITCQASQSIGTYLAWYQQKPGKPPKLLIYRAFILASGVPSRFSGSGSGTDFTLTISSLQPEDFATYYCQSNFYSDSTTIGPNAFGTGTKVTVLGGGGGSGGGGSGGGGSGGGGSEVQLVESGGGLVQPGGSLRLSCAASGFSFNSDYWIYWVRQAPGKGLEWIASIYGGSSGNTQYASWAQGRFTISRDNSKNTVYLQMNSLRAEDTAVYFCARGYVDYGGATDLWGQGTLVTVSS
notes: also called PRO2330; PRO2230 wt
In experiment [1], B1 came in with a No of positive serum samples above 30 % CCP (positive sera of 20) of 6 and a No of screening positive serum samples above 30 % Inhibition (positive sera of 20) of 18. The Kd in experiment [2] amounted to 1.5 nM.

B2: scFv 54-21-H03-sc01 (PRO1922) (scFv)
scFv: DIQMTQSPSSLSASVGDRVTITCQASESIYSSLAWYQQKPGKAPKLLIYLASTLASGVPSRFSGSGSGTDFTLTISSLQPEDFATYYCQSTDYTTSTHRNSFGTGTKVTVLGGGGGSGGGGSGGGGSGGGGSEVQLVESGGGLVQPGGSLRLSCAASGFSFSTTYYMCWVRQAPGKGLEWIGCTNTASSVRTYYATWAKGRFTISRDNSKNTVYLQMNSLRAEDTAVYYCARDMGFADYALNLWGQGTLVTVSS
notes: also called PRO1992; PRO1922 wt
B2: in experiment [1], the No of positive serum samples above 30 % CCP (positive sera of 20) stood at 10 and the No of screening positive serum samples above 30 % Inhibition (positive sera of 20) turned out to be 16. For the same molecule, the Kd in experiment [3] turned out to be 1.8 nM.
